# Columns and labels:
# [1] = biological target: T1, hMPV069 (hMPV A, UniProt Q6WB98 19-102); assay: BLI, 50C stress
# T1 construct: S291I
# Method: (§1) The OCTET HTX (Sartorius, Gottingen, Germany) instrument was used to evaluate the expression and conformational integrity for each mutant. All measurements were conducted at 30° C. temperature in 96-well black plates (Corning, Corning, NY) with a final volume of 240 μL per well at a constant agitation rate of 1000 RPM.
# (§2) Conformation integrity of hMPV A F protein mutants were evaluated by thermal stress experiments. Crude cell culture supernatants were normalized based on the results of the titer quantitation and then incubated for 1 hour at room temperature and two higher temperatures. […] Anti-Human IgG Fc Capture (AHC) biosensors were first equilibrated in PB before being dipped into more PB to establish the initial baseline. […] The mAb-bound biosensors were then dipped into the thermal stressed cell culture supernatants for 5 minutes. The kinetics analysis was done by OCTET data analysis software (version 12.0, Sartorius) based on curve fitting of the entire associate step.
# [2] = biological target: T2, hMPV054 (hMPV A, UniProt Q6WB98 19-102); assay: BLI, 50C stress
# T2 construct: S132P
# Method: as §1, §2
# [3] = biological target: T3, hMPV067 (hMPV A, UniProt Q6WB98 19-102); assay: BLI, 50C stress
# T3 construct: S149T
# Method: as §1, §2
# [4] = biological target: T4, hMPV075 (hMPV A, UniProt Q6WB98 19-102); assay: BLI, 50C stress
# T4 construct: L473F
# Method: as §1, §2
# [5] = biological target: T5, hMPV068 (hMPV A, UniProt Q6WB98 19-102); assay: BLI, 50C stress
# T5 construct: A159V
# Method: as §1, §2
# [6] = biological target: T6, hMPV059 (hMPV A, UniProt Q6WB98 19-102); assay: BLI, 50C stress
# T6 construct: V449P
# Method: as §1, §2
# [7] = biological target: T7, hMPV071 (hMPV A, UniProt Q6WB98 19-102); assay: BLI, 50C stress
# T7 construct: T365I
# Method: as §1, §2
# [8] = biological target: T8, hMPV049 (hMPV A, UniProt Q6WB98 19-102); assay: BLI, 50C stress
# T8 construct: E146C-T160C
# Method: as §1, §2
# [9] = biological target: T9, hMPV066 (hMPV A, UniProt Q6WB98 19-102); assay: BLI, 50C stress
# T9 construct: T49I
# Method: as §1, §2
# [10] = biological target: T10, hMPV047 (hMPV A, UniProt Q6WB98 19-102); assay: BLI, 50C stress
# T10 construct: L141C-A159C
# Method: as §1, §2
# [11] = biological target: T11, hMPV046 (hMPV A, UniProt Q6WB98 19-102); assay: BLI, 50C stress
# T11 construct: A140C-S149C
# Method: as §1, §2
# [12] = biological target: T12, hMPV050 (hMPV A, UniProt Q6WB98 19-102); assay: BLI, 50C stress
# T12 construct: V148C-L158C
# Method: as §1, §2
# [13] = biological target: T13, hMPV044 (hMPV A, UniProt Q6WB98 19-102); assay: BLI, 50C stress
# T13 construct: T411C-Q434C
# Method: as §1, §2
# [14] = biological target: hMPV A F WT Control (hMPV A, UniProt Q6WB98 19-102); assay: BLI, 50C stress
# Method: as §1, §2
# [15] = biological target: T14, hMPV060 (hMPV A, UniProt Q6WB98 19-102); assay: BLI, 50C stress
# T14 construct: A459P
# Method: as §1, §2
# [16] = biological target: T15, hMPV058 (hMPV A, UniProt Q6WB98 19-102); assay: BLI, 50C stress
# T15 construct: L187P
# Method: as §1, §2
# [17] = biological target: T16, hMPV052 (hMPV A, UniProt Q6WB98 19-102); assay: BLI, 50C stress
# T16 construct: L66P
# Method: as §1, §2
# [18] = biological target: T17, hMPV062 (hMPV A, UniProt Q6WB98 19-102); assay: BLI, 50C stress
# T17 construct: G121A
# Method: as §1, §2
# [19] = biological target: T18, hMPV055 (hMPV A, UniProt Q6WB98 19-102); assay: BLI, 50C stress
# T18 construct: N145P
# Method: as §1, §2
# [20] = biological target: T19, hMPV043 (hMPV A, UniProt Q6WB98 19-102); assay: BLI, 50C stress
# T19 construct: G366C-D454C
# Method: as §1, §2
# [21] = biological target: T20, hMPV077 (hMPV A, UniProt Q6WB98 19-102); assay: BLI, 50C stress
# T20 construct: Q476C, S477C
# Method: as §1, §2
# [22] = biological target: T21, hMPV053 (hMPV A, UniProt Q6WB98 19-102); assay: BLI, 50C stress
# T21 construct: L110P
# Method: as §1, §2
# [23] = biological target: T22, hMPV105 (hMPV B, UniProt Q6WB98 19-102); assay: BLI, no stress
# T22 construct: G239A
# Method: (§3) All measurements were conducted at 30° C. temperature in 96-well black plates (Corning, Corning, NY) with a final volume of 240 μL per well at a constant agitation rate of 1000 RPM.
# (§4) Conformation integrity of hMPV B F protein mutants were evaluated by a thermal stress experiment. Crude cell culture supernatants were normalized based on the results of the titer quantitation and then incubated for 1 hour at room temperature and two higher temperatures. For the testing of hMPV B single mutants, the two temperatures were 53° C. and 56° C. After the incubation, the protein mutants were probed with prefusion specific monoclonal antibody hMPV-2 by OCTET HTX. Anti-Human IgG Fc Capture (AHC) biosensors were first equilibrated in PB before being dipped into more PB for to establish the initial baseline. Biosensors were incubated with hMPV-2 before being equilibrated in PB to establish the experimental baseline. The mAb-bound biosensors were then dipped into the thermal stresses cell culture supernatants for 5 minutes.
# [24] = biological target: T23, hMPV101 (hMPV B, UniProt Q6WB98 19-102); assay: BLI, no stress
# T23 construct: A140C-S149C
# Method: as §3, §4
# [25] = biological target: hMPV B F WT Control (hMPV B, UniProt Q6WB98 19-102); assay: BLI, no stress
# Method: as §3, §4
# [26] = biological target: T24, hMPV107 (hMPV B, UniProt Q6WB98 19-102); assay: BLI, no stress
# T24 construct: S149T
# Method: as §3, §4
# [27] = biological target: T25, hMPV103 (hMPV B, UniProt Q6WB98 19-102); assay: BLI, no stress
# T25 construct: E146C-T160C
# Method: as §3, §4
# [28] = biological target: T26, hMPV104 (hMPV B, UniProt Q6WB98 19-102); assay: BLI, no stress
# T26 construct: A459P
# Method: as §3, §4
# [29] = biological target: T27, hMPV100 (hMPV B, UniProt Q6WB98 19-102); assay: BLI, no stress
# T27 construct: T411C-Q434C
# Method: as §3, §4
# [30] = biological target: T28, hMPV106 (hMPV B, UniProt Q6WB98 19-102); assay: BLI, no stress
# T28 construct: T49I
# Method: as §3, §4
# [31] = biological target: T29, hMPV102 (hMPV B, UniProt Q6WB98 19-102); assay: BLI, no stress
# T29 construct: L141C-A161C
# Method: as §3, §4
# [32] = biological target: T30, hMPV108 (hMPV B, UniProt Q6WB98 19-102); assay: BLI, no stress
# T30 construct: T365I
# Method: as §3, §4
# [33] = biological target: T31, PIV1056 (PIV1); assay: BLI, 53C stress;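 also: binding of thermally stressed PIV1 F mutant supernatant to mAb on AHC biosensors for 5 min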
# T31 construct: F113G, F114S, A466L, S473L, A480L, Q92A, G134A
# Method: as §1
# (§5) Conformation integrity of PIV1 F protein mutants were evaluated by a thermal stress experiment. Crude cell culture supernatants were normalized based on the results of the titer quantitation and then incubated for 1 hour at room temperature and two higher temperatures. For the initial testing of PIV1 mutants, the two temperatures were 50° C. and 53° C. […] Anti-Human IgG Fc Capture (AHC) biosensors were first equilibrated in PB for before being dipped into more PB to establish the initial baseline. […] The mAb-bound biosensors were then dipped into the thermal stresses cell culture supernatants for 5 minutes.
# [34] = biological target: T32, PIV1055 (PIV1); assay: BLI, 53C stress;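 also: binding of thermally stressed PIV1 F mutant supernatant to mAb on AHC biosensors for 5 min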
# T32 construct: A466L, S473L, G134A
# Method: as §1, §5
# [35] = biological target: T33, PIV1052 (PIV1); assay: BLI, 53C stress;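 also: binding of thermally stressed PIV1 F mutant supernatant to mAb on AHC biosensors for 5 min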
# T33 construct: Q92C-G134C, A466V, S473V; also called PV1052
# Method: as §1, §5
# [36] = biological target: T34, PIV1067 (PIV1); assay: BLI, 53C stress;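 also: binding of thermally stressed PIV1 F mutant supernatant to mAb on AHC biosensors for 5 min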
# T34 construct: F113G, F114S, Q92C-G134C, A466I, S473I, A480I
# Method: as §1, §5
# [37] = biological target: T35, PIV1066 (PIV1); assay: BLI, 53C stress
# T35 construct: A466I, S473I, A480L, Q92L, G134A
# Method: as §1, §5
binder,measurement,setting,value
"hMPV-2 mAb (antibody, V domains shown, human IgG1) VH: QVQLQQSGAEVKKPGASVKVSCKASGYTFTSYGISWVRQAPGQGLEWMGWISGYNGNTNYAQTFQGTFTMTTDTSTSTAYMELRRLRSGDTAVYYCARDRYYASGSYNGMDVWGQGTTVTVSS VL: QSALTQPPSASGAPGQRVTVSCSGSSSNVGSSSVYWYQQLPGTAPKLLIYRNNQRPSGVPDRFSGSKSGTSASLAISGLRSEDEADYYCAAWDDSLSGWVFGGGTKLTVLG",Response Shift,[1],0.465 nm
same,Response Shift,[2],0.467 nm
same,Response Shift,[3],0.654 nm
same,Response Shift,[4],0.653 nm
same,Response Shift,[5],0.441 nm
same,Response Shift,[6],0.455 nm
same,Response Shift,[7],0.694 nm
same,Response Shift,[8],0.549 nm
same,Response Shift,[9],0.738 nm
same,Response Shift,[10],-0.039 nm
same,Response Shift,[11],0.472 nm
same,Response Shift,[12],0.142 nm
same,Response Shift,[13],0.737 nm
same,Response Shift,[14],0.284 nm
same,Response Shift,[15],0.707 nm
same,Response Shift,[16],0.494 nm
same,Response Shift,[17],0.634 nm
same,Response Shift,[18],0.46 nm
same,Response Shift,[19],0.194 nm
same,Response Shift,[20],0.567 nm
same,Response Shift,[21],0.635 nm
same,Response Shift,[22],0.566 nm
same,Response Shift,[23],0.906 nm
same,Response Shift,[24],0.707 nm
same,Response Shift,[25],0.867 nm
same,Response Shift,[26],0.89 nm
same,Response Shift,[27],0.814 nm
same,Response Shift,[28],0.85 nm
same,Response Shift,[29],0.863 nm
same,Response Shift,[30],0.912 nm
same,Response Shift,[31],0.84 nm
same,Response Shift,[32],0.89 nm
"PIV1-8 mAb (antibody, V domains shown, human IgG1; also called hPIV1-8 mAb; hPIV1-8) VH: QVQLVQSGAEVKKPGSSVKVSCEASGGTFSNYVISWVRQAPGQGLEWMGGIIPVFATAKYAQKFQGRVTIIADQSTNTAYLELSSLRSDDTAVYFCASVDSGGTWWDAFAIWGQGTMVTVSS VL: QAVVTQPRSVSGSPGQAVTISCTGTSSDVGGYNYVSWYQHHPGKAPKLIIYDVTKRPSGVPDRFSGSKSGNTASLTISGLQTEYEADYYCCSYAGSYTLVFGGGTKLTVLG",Response Shift,[33],0.805 nm
same,Response Shift,[34],0.787 nm
same,Response Shift,[35],-0.026 nm
same,Response Shift,[36],0.896 nm
same,Response Shift,[37],0.722 nm

# Source: US20240252614A1 (Pfizer, published 2024)
